In FireProtDB (doi:10.1016/0022-2836(92)90387-y):

B1: Ribonuclease, P00648 (parent)
chain: MMKMEGIALKKRLSWISVCLLVLVSAAGMLFSTAAKTETSSHKAHTEAQVINTFDGVADYLQTYHKLPDNYITKSEAQALGWVASKGNLADVAPGKSIGGDIFSNREGKLPGKSGRTWREADINYTSGFRNSDRILYSSDWLIYKTTDHYQTFTKIR

Variants of: B1
Settings: Bacillus amyloliquefaciens; pH 6.3; 25 °C; Urea; Fluorescence; MES 50 mM; reversible: yes; structure 1BNI; whole UniProt chain shown

In the case of E120A, the “ddG of mutation (higher = less stable)” value is reported as 2.3 kcal/mol and the unfolding free energy is reported as 6.53 kcal/mol.

For Q151A, the “ddG of mutation (higher = less stable)” value was 0.16 kcal/mol and the unfolding free energy was 8.67 kcal/mol.

For K74A, the “ddG of mutation (higher = less stable)” value was -0.36 kcal/mol and the unfolding free energy was 9.19 kcal/mol.

In the case of S104A, the “ddG of mutation (higher = less stable)” value is reported as -0.15 kcal/mol and the unfolding free energy is reported as 8.98 kcal/mol.

In the case of D101N, the “ddG of mutation (higher = less stable)” value is reported as 2.67 kcal/mol and the unfolding free energy is reported as 8.16 kcal/mol.

For N105D, the “ddG of mutation (higher = less stable)” value was -0.4 kcal/mol and the unfolding free energy was 9.23 kcal/mol.

For R106A, the “ddG of mutation (higher = less stable)” value was -0.64 kcal/mol and the unfolding free energy was 9.47 kcal/mol.

With Y150F the “ddG of mutation (higher = less stable)” value was 0 kcal/mol and the unfolding free energy was 8.83 kcal/mol.

With H149A the “ddG of mutation (higher = less stable)” value was 0.24 kcal/mol and the unfolding free energy was 8.59 kcal/mol.
